# Measurements reported in paper PMC9482650, “Quantitative fragmentomics allow affinity mapping of interactomes” (Nature Communications, 2022).
# B1: SCN8A, Q9UQD0 (peptide)
# chain: RQKEVRESKC
# B2: ZSCAN30, Q86W11 (peptide)
# chain: MQHQRTHTRV
# Biological target: T1, TJP3_3, O95049
# T1 sequence (O95049 375-456, limits assumed, looked up): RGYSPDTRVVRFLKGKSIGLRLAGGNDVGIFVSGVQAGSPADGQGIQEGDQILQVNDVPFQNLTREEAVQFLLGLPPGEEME
# Test: holdup assay
# Parameters: key: below the threshold = too weak to quantify, mostly under pKd 3.1 to 4
# Conditions: plain residues with an end cap or a label only (N-terminal biotin on a linker: ado-ado)
row,Binder,pKd
1,B1,below the threshold
2,B2,below the threshold

# Biological target: T2, DFNB31_2, Q9P202
# T2 sequence (Q9P202 274-371, limits assumed, looked up): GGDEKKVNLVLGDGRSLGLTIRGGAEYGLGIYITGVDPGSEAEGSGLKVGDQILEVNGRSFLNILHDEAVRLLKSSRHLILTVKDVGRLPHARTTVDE
# Test: holdup assay
# Parameters: key: below the threshold = too weak to quantify, mostly under pKd 3.1 to 4
# Conditions: plain residues with an end cap or a label only (N-terminal biotin on a linker: ado-ado)
row,Binder,pKd
1,B1,4.37
2,B2,below the threshold

# Biological target: PDZRN4_1, Q6ZMN7
# Sequence (Q6ZMN7 213-318): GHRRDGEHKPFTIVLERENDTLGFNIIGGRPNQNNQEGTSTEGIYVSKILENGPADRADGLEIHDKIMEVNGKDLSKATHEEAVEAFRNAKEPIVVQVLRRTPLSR
# Test: holdup assay
# Parameters: key: below the threshold = too weak to quantify, mostly under pKd 3.1 to 4
# Conditions: plain residues with an end cap or a label only (N-terminal biotin on a linker: ado-ado)
row,Binder,pKd
1,B1,below the threshold
2,B2,below the threshold

# Biological target: DLG1_2, Q12959
# Test: holdup assay
# Parameters: key: below the threshold = too weak to quantify, mostly under pKd 3.1 to 4
# Conditions: plain residues with an end cap or a label only (N-terminal biotin on a linker: ado-ado)
row,Binder,pKd
1,B1,3.55
2,B2,5.12

# Biological target: T3, LRRC7, Q96NW7
# T3 sequence (Q96NW7 1440-1537, limits assumed, looked up): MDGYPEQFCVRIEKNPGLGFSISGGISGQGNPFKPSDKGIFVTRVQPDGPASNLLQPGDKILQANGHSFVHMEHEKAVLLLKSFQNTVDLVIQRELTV
# Test: holdup assay
# Parameters: key: below the threshold = too weak to quantify, mostly under pKd 3.1 to 4
# Conditions: plain residues with an end cap or a label only (N-terminal biotin on a linker: ado-ado)
row,Binder,pKd
1,B1,below the threshold
2,B2,below the threshold

# Biological target: T4, RHPN1, Q8TCX5
# T4 sequence (Q8TCX5 508-602, limits assumed, looked up): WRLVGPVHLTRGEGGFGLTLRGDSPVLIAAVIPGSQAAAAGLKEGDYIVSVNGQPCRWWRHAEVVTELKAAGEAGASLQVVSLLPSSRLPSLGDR
# Test: holdup assay
# Parameters: key: below the threshold = too weak to quantify, mostly under pKd 3.1 to 4
# Conditions: plain residues with an end cap or a label only (N-terminal biotin on a linker: ado-ado)
row,Binder,pKd
1,B1,below the threshold
2,B2,3.72

# Biological target: MAGI2_2, Q86UL8
# Sequence (Q86UL8 410-522): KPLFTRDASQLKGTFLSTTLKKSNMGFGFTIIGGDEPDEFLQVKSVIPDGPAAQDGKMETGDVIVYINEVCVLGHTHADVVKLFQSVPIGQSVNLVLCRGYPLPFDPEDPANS
# Test: holdup assay
# Parameters: key: below the threshold = too weak to quantify, mostly under pKd 3.1 to 4
# Conditions: plain residues with an end cap or a label only (N-terminal biotin on a linker: ado-ado)
row,Binder,pKd
1,B1,4.02
2,B2,5.42

# Biological target: CASK, O14936
# Sequence (O14936 487-570): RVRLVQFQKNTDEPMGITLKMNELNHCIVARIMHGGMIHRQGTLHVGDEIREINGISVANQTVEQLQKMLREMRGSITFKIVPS
# Test: holdup assay
# Parameters: key: below the threshold = too weak to quantify, mostly under pKd 3.1 to 4
# Conditions: plain residues with an end cap or a label only (N-terminal biotin on a linker: ado-ado)
row,Binder,pKd
1,B1,below the threshold
2,B2,below the threshold

# Biological target: MAGI2_4, Q86UL8
# Sequence (Q86UL8 772-865): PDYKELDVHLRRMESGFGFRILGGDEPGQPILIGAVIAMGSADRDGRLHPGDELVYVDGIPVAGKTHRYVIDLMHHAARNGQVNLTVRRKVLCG
# Test: holdup assay
# Parameters: key: below the threshold = too weak to quantify, mostly under pKd 3.1 to 4
# Conditions: plain residues with an end cap or a label only (N-terminal biotin on a linker: ado-ado)
row,Binder,pKd
1,B1,below the threshold
2,B2,3.49

# Biological target: GRIP2_7, Q9C0E4
# Sequence (Q9C0E4 934-1023): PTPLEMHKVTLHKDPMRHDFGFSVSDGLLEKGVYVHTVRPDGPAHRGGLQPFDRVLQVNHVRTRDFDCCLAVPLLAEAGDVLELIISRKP
# Test: holdup assay
# Parameters: key: below the threshold = too weak to quantify, mostly under pKd 3.1 to 4
# Conditions: plain residues with an end cap or a label only (N-terminal biotin on a linker: ado-ado)
row,Binder,pKd
1,B1,below the threshold
2,B2,below the threshold

# Biological target: NHERF4_4, Q86UT5
# Sequence (Q86UT5 464-550): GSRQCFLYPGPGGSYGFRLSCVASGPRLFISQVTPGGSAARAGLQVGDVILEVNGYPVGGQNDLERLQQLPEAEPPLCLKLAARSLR
# Test: holdup assay
# Parameters: key: below the threshold = too weak to quantify, mostly under pKd 3.1 to 4
# Conditions: plain residues with an end cap or a label only (N-terminal biotin on a linker: ado-ado)
row,Binder,pKd
1,B1,below the threshold
2,B2,below the threshold

# Biological target: LNX1_3, Q8TBB1
# Sequence (Q8TBB1 500-596): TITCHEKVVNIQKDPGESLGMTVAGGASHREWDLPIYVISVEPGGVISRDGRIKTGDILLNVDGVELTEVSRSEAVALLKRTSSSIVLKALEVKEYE
# Test: holdup assay
# Parameters: key: below the threshold = too weak to quantify, mostly under pKd 3.1 to 4
# Conditions: plain residues with an end cap or a label only (N-terminal biotin on a linker: ado-ado)
row,Binder,pKd
1,B1,below the threshold
2,B2,3.53

# Biological target: T5, MPDZ_12, O75970
# T5 sequence (O75970 1857-1958, limits assumed, looked up): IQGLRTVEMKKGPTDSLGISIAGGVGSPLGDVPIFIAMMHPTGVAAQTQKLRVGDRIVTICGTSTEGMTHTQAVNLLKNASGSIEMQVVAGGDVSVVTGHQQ
# Test: holdup assay
# Parameters: key: below the threshold = too weak to quantify, mostly under pKd 3.1 to 4
# Conditions: plain residues with an end cap or a label only (N-terminal biotin on a linker: ado-ado)
row,Binder,pKd
1,B1,below the threshold
2,B2,below the threshold

# Biological target: Inadl_5, Q8NI35
# Sequence (Q8NI35 673-780): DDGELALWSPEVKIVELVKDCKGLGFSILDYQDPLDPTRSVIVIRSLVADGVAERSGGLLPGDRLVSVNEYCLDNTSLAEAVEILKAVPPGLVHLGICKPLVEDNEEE
# Test: holdup assay
# Parameters: key: below the threshold = too weak to quantify, mostly under pKd 3.1 to 4
# Conditions: plain residues with an end cap or a label only (N-terminal biotin on a linker: ado-ado)
row,Binder,pKd
1,B1,below the threshold
2,B2,below the threshold

# Biological target: T6, SNTA1, Q13424
# T6 sequence (Q13424 82-180, limits assumed, looked up): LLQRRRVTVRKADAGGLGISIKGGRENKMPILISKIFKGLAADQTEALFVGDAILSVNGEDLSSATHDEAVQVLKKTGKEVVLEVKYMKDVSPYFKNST
# Test: holdup assay
# Parameters: key: below the threshold = too weak to quantify, mostly under pKd 3.1 to 4
# Conditions: plain residues with an end cap or a label only (N-terminal biotin on a linker: ado-ado)
row,Binder,pKd
1,B1,4.65
2,B2,4.23

# Biological target: DLG1_1, Q12959
# Test: holdup assay
# Parameters: key: below the threshold = too weak to quantify, mostly under pKd 3.1 to 4
# Conditions: plain residues with an end cap or a label only (N-terminal biotin on a linker: ado-ado)
row,Binder,pKd
1,B1,below the threshold
2,B2,4.41

# Biological target: T7, GRIP1_7, Q9Y3R0
# T7 sequence (Q9Y3R0 999-1096, limits assumed, looked up): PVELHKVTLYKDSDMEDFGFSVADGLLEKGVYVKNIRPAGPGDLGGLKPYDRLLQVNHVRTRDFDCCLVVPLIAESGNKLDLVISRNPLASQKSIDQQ
# Test: holdup assay
# Parameters: key: below the threshold = too weak to quantify, mostly under pKd 3.1 to 4
# Conditions: plain residues with an end cap or a label only (N-terminal biotin on a linker: ado-ado)
row,Binder,pKd
1,B1,below the threshold
2,B2,below the threshold

# Biological target: T8, NHERF3_1, Q5T2W1
# T8 sequence (Q5T2W1 4-100, limits assumed, looked up): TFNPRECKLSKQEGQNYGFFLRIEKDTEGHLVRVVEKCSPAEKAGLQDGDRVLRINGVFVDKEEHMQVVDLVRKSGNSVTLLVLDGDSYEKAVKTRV
# Test: holdup assay
# Parameters: key: below the threshold = too weak to quantify, mostly under pKd 3.1 to 4
# Conditions: plain residues with an end cap or a label only (N-terminal biotin on a linker: ado-ado)
row,Binder,pKd
1,B1,4.71
2,B2,4

# Biological target: DLG1_3, Q12959
# Test: holdup assay
# Parameters: key: below the threshold = too weak to quantify, mostly under pKd 3.1 to 4
# Conditions: plain residues with an end cap or a label only (N-terminal biotin on a linker: ado-ado)
row,Binder,pKd
1,B1,4.13
2,B2,3.81

# Biological target: MAGI1_2, Q96QZ7
# Sequence (Q96QZ7 456-580): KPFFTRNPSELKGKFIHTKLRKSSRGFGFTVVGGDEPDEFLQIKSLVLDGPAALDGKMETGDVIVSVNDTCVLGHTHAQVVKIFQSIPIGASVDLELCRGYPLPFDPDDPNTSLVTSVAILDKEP
# Test: holdup assay
# Parameters: key: below the threshold = too weak to quantify, mostly under pKd 3.1 to 4
# Conditions: plain residues with an end cap or a label only (N-terminal biotin on a linker: ado-ado)
row,Binder,pKd
1,B1,3.67
2,B2,4.87

# Biological target: T9, MPDZ_10, O75970
# T9 sequence (O75970 1624-1722, limits assumed, looked up): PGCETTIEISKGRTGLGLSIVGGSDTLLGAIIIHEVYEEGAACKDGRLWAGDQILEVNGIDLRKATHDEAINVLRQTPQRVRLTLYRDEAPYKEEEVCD
# Test: holdup assay
# Parameters: key: below the threshold = too weak to quantify, mostly under pKd 3.1 to 4
# Conditions: plain residues with an end cap or a label only (N-terminal biotin on a linker: ado-ado)
row,Binder,pKd
1,B1,3.8
2,B2,3.7

# Biological target: T10, APBA3_1, O96018
# T10 sequence (O96018 389-490, limits assumed, looked up): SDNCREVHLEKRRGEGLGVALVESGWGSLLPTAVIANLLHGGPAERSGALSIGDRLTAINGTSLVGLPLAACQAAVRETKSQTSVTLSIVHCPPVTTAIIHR
# Test: holdup assay
# Parameters: key: below the threshold = too weak to quantify, mostly under pKd 3.1 to 4
# Conditions: plain residues with an end cap or a label only (N-terminal biotin on a linker: ado-ado)
row,Binder,pKd
1,B1,below the threshold
2,B2,below the threshold

# Biological target: T11, SYNJ2BP, P57105
# T11 sequence (P57105 8-110, limits assumed, looked up): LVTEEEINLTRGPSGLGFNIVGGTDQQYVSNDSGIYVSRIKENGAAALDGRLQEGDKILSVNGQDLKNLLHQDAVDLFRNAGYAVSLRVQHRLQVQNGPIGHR
# Test: holdup assay
# Parameters: key: below the threshold = too weak to quantify, mostly under pKd 3.1 to 4
# Conditions: plain residues with an end cap or a label only (N-terminal biotin on a linker: ado-ado)
row,Binder,pKd
1,B1,4.23
2,B2,4.28

# Biological target: T12, PTPN13_1, Q12923
# T12 sequence (Q12923 1088-1188, limits assumed, looked up): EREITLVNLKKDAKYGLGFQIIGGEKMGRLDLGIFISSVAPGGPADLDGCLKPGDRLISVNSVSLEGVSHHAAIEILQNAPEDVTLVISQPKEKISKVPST
# Test: holdup assay
# Parameters: key: below the threshold = too weak to quantify, mostly under pKd 3.1 to 4
# Conditions: plain residues with an end cap or a label only (N-terminal biotin on a linker: ado-ado)
row,Binder,pKd
1,B1,below the threshold
2,B2,below the threshold

# Biological target: T13, APBA2_1, Q99767
# T13 sequence (Q99767 563-664, limits assumed, looked up): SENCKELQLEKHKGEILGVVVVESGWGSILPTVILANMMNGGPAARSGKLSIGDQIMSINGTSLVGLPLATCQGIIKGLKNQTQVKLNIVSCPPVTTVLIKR
# Test: holdup assay
# Parameters: key: below the threshold = too weak to quantify, mostly under pKd 3.1 to 4
# Conditions: plain residues with an end cap or a label only (N-terminal biotin on a linker: ado-ado)
row,Binder,pKd
1,B1,below the threshold
2,B2,below the threshold
